Biological target: S-peptide S-peptide (Bos taurus, UniProt P61823)
Experiment: ITC

Sequence of S-peptide S-peptide (P61823 27-46): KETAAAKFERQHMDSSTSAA

B1: RNase S-protein S-protein (protein)
chain: SSSNYCNQMMKSRNLTKDRCKPVNTFVHESLADVQAVCSQKNVACKNGQTNCYQSYSTMSITDCRETGSSKYPNCAYKTTQANKHIIVACEGNPYVPVHFDASV
- Kd: 130 nM

From PMC6461108 (2019)
